Molecular target: CD81 large external loop (LEL) (UniProt P60033)
Sequence of UniProt P60033 (P60033 113-201): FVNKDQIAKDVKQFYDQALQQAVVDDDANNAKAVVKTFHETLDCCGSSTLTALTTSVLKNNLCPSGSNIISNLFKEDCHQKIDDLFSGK

## HCV E2 ectodomain (E2e), isolate UKN2b_2.8, genotype 2b (domain or fragment)
  inhibition of infection of Huh-7.5 cells by HCVcc (infected foci, HCV core immunofluorescence), cells preincubated with 0.05 to 2 µM HCV E2e; 10% inhibition at 0.05 µM: 90%
